# Experimental data from article PMC8660260 (2021).
# T1: NSP12 peptide on HLA-A*02:01 (human)
# T1 peptide: FVDGVPFVV
# T2: NSP12 peptide on HLA-A*02:01 (human)
# T2 peptide: TMADLVYAL
# B1: CoVTCR 19 (TCR)
# alpha TRAV35 TRAJ43 CDR3: CAGQLARDMRF
# beta TRBV13 TRBJ2-7 CDR3: CASRWAGGTAYEQYF
# B2: CoVTCR 18 (TCR)
# alpha TRAV12-1 TRAJ45 CDR3: CVLPSGGGADGLTF
# beta TRBV5-1 TRBJ2-1 CDR3: CASTGLAGGPYNEQFF
# B3: CoVTCR 12 (TCR)
# alpha TRAV17 TRAJ57 CDR3: CATVLPTQGGSEKLVF
# beta TRBV18 TRBJ1-1 CDR3: CASSLTVNMNTEAFF
# Columns and labels:
# [1] = molecular target: T1, NSP12 peptide on HLA-A*02:01; test: activation reporter or marker
# [2] = molecular target: T2, NSP12 peptide on HLA-A*02:01; test: activation reporter or marker
Binder,binding result [1],binding result [2]
B1,recognises,
B2,recognises,
B3,,recognises
